Reference: paper PMC9666535

What was measured:
[1] = target: FEN1 D181A•PCNA complex prebound on the nick product (FEN1•PCNA•NP) (human) (UniProt P39748); assay: other fluorescence titration; apparent; FeSQ quenching of Cy3 on the DNA: FEN1 D181A (250 nM) prebound to PCNA-loaded nick DNA (Sub#28), Polδ titrated; quadratic fit (Eq. 1); 22 °C, 50 mM HEPES-KOH pH 7.5, 100 mM KCl, 10 mM MgCl2, 1 mM ATP
PCNA WT = PCNA WT (UniProt P12004); assay: single-molecule FRET of DNA bending (TIRF); internally labeled double flap DNA on the surface, PCNA pre-loaded by RFC and trapped on it (Sub#12) or absent (Sub#13); Polδ Exo^− 250 nM in solution; 50 ms resolution; 50 mM HEPES-KOH pH 7.5, 100 mM KCl, 10 mM MgCl2; details: other: single-molecule FRET of DNA bending (TIRF)
PCNA (Homo sapiens) = PCNA (Homo sapiens) (UniProt P12004); details: cited from earlier work
Sequence of PCNA (Homo sapiens) (P12004 whole entry): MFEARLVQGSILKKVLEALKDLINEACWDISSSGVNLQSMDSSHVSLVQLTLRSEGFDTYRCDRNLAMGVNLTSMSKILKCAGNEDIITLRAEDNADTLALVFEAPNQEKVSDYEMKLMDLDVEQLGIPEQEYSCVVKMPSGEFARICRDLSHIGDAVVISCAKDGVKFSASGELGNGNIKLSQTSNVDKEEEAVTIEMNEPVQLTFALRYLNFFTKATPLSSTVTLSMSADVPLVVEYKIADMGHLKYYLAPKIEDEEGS

Sequence of FEN1 (P39748 whole entry): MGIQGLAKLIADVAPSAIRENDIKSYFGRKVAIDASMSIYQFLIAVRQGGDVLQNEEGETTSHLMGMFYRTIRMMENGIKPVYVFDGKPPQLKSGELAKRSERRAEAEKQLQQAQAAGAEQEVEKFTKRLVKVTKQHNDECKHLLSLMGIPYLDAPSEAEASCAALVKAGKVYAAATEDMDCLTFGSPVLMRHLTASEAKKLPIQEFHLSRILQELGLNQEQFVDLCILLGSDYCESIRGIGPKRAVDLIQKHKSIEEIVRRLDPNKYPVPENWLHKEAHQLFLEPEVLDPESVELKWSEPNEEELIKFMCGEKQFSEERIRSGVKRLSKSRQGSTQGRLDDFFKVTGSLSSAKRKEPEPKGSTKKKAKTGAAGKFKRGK
Sequence of PCNA WT (P12004 whole entry): as the sequence (P12004 whole entry) above
Sequence of FEN1 D181A•PCNA complex prebound on the nick product (FEN1•PCNA•NP) (human) (P39748 2-380 D181A, chain 1 of 2): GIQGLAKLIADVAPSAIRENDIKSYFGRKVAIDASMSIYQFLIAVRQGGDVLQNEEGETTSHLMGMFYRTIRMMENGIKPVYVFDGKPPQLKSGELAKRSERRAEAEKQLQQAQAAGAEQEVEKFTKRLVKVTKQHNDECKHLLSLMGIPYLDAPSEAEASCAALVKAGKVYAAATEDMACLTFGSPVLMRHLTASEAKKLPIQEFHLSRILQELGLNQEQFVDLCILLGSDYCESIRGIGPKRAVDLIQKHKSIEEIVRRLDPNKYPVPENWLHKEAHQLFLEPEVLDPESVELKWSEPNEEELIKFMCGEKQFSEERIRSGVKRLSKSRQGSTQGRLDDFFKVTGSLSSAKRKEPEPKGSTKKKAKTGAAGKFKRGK
Sequence of FEN1 D181A•PCNA complex prebound on the nick product (FEN1•PCNA•NP) (human) (P12004 whole entry, chain 2 of 2, further chain): as the sequence (P12004 whole entry) above

Work on “Polδ Exo^− (D515V in p125) (from UniProt P28340 1-1107; Q9HCU8 1-107) (complex)” yielded a Kd [1] of 4.5 nM.

For Polδ Exo^− (D515V in p125), the “assembly yield of the Polδ•PCNA complex” value (PCNA WT) was “the assembly yield was only ~70%”.

In the case of FEN1 (from UniProt P39748), the Kd (PCNA (Homo sapiens)) is listed as 70 nM.
